The values that follow are results of earlier work, collected in patent US20070264241A1, “Compounds for Enhanced Cancer Therapy” (priority 2004, published 2007).

The test system of the data set is cell line transfected with Dm dNK variant. The conditions noted are these: cited from earlier work.

B1: B5: mutant form of the Drosophila melanogaster Dm dNK deoxyribonucleoside kinase (SEQ ID NO 5) (protein)
chain: MAEAASCARKGTKYAEGTQPFTVLIEGNIGSGKTTYLNHFEKYKNDICLLTEPVEKWRNVNGVNLLELMYKDPKKWAMPFQSYATLTMLQSHTAPTNKKLKIMERSIFSARYCFVENMRRNGSLEQGMYNTLEEWYKFIEESIHVQADLIIYLRTSPEVAYERIRQRARSEESCVPLKYLQELHELHEDWLIHQRRPQSCKVLVLDADLDLENIGTEYQRSESSIFDAISSNQQPSPVPVSPSKRQRVAR
modifications: Drosophila melanogaster
For the molecule B1, the “degree of activation for gemcitabine relative to wild type Dm dNK” value was “approximately 50 times”.
